Measurements published in patent publication US20060246520A1, “Gamma delta t cell-mediated therapy” (INSTITUT NATIONAL DE LA SANTE ET DE LA RECHERCHE MEDICALE, priority 2003, published 2006).

Legend:
Daudi cells [1] = experiment: 125I-labelled free apoA-I binding assay on Daudi cells (Scatchard); parameters: species or system human; settings: 2 hours at 4° C.; single binding receptor; read-out: KD of binding to Daudi cells (Scatchard analysis)
Method: (§1) (e): ^125I-labelled free apoA-I binding was measured after 2 hours incubation at 4° C. on Daudi and Raji cells. Top and bottom panels: binding isotherm of ^125I-labeled free apoA-I to Daudi (top) and Raji (bottom) cells. (◯): total binding, (σ): non-specific binding; (●): specific binding. Middle panel: Scatchard representation of specific binding on Daudi cells.
(§2) The binding experiments were performed at 4° C. for 2 hours as previously described (Barbaras et al., 1994). Briefly, cells (9 μg of cell proteins per point) were incubated in PBS for 2 hours at 4° C. with increasing concentrations of labeled apoA-I. Cells were filtered on 0.22 μm filters (GVWP Millipore-France) and washed four times with 1% BSA in PBS. Filters were used for radioactivity measurements. Non-specific binding was determined in the presence of a 100-fold excess (as compared to the KD value) of the corresponding unlabeled ligand. Binding was analyzed using a weighted non-linear curve-fitting program, based on the LIGAND analysis program (Prism-GraphPad).

Raji cells = experiment: 125I-labelled free apoA-I binding assay on Raji cells; parameters: species or system human; settings: 2 hours at 4° C.
Method: as §1, §2

immobilized Vγ9Vδ2TCR = experiment: SPR: purified apolipoprotein binding to immobilized Vγ9Vδ2TCR; parameters: species or system human; settings: soluble proteins injected at 100 μg/ml; immobilized TCR 335 RU
From the text: FIG. 7. Surface plasmon resonance analysis. Soluble proteins were exposed to the sensorchip surface for 240 s (association phase) followed by a 240-s flow running (dissociation phase). Immobilized proteins were on sensorchips flowcell 2. Sensorgrams are representative of specific interactions (differential response) where non-specific binding that occurred on flow cell 1 (with no protein immobilized) was deduced from binding that occurred on flow cell 2. Results are expressed as resonance units (RU) as a function of time in seconds.
(c) Comparative sensorgrams of purified apoA-I (full line) and apoA-II (dotted line) binding to immobilized Vγ9Vδ2TCR (proteins were injected at 100 μg/ml). Amount of immobilized TCRγδ protein was 335 RU on flow cell 2.
ApoA-I and ATP synthase (F1 subunit) were immobilized by amine linkage on CM5 chips (Biacore AB) following NHS-EDC activation; Vγ9Vδ2-biotinylated soluble TCRs were immobilized on SA streptavidin-coated chips (Biacore AB) and binding was analyzed in a Biacore 3000 apparatus (BiacoreAB). Soluble ligands were injected at a flow rate of 20 μl/min, exposed to the surface for 240 s (association phase) followed by a 240-s flow running during which the dissociation occurred. […] Results are expressed as resonance units (RU) as a function of time in seconds.

K562 cells = experiment: PE-labelled TCR tetramer staining of serum-depleted K562 cells incubated with apolipoproteins or competing mAb; type: cell-based, human; settings: serum-depleted K562, apolipoprotein preparations 100 μg/ml
Method: FIG. 3: Vγ9Vδ2 TCR binding to tumor cells and apoA-I. PE-labeled tetrameric TCRs from clone G115 and clone 73R9 were used to stain tumor cell lines and assess the influence of apolipoproteins on their tumor recognition. Shaded histograms: concentration-matched streptavidin-PE alone. Line histograms: binding of the indicated PE-labelled tetrameric TCR. (a) Cell lines were cultured in 10% fcs before staining with tetramers. (b) K562 cells were serum-depleted, incubated with 10% human serum or the indicated apolipoprotein preparations (100 μg/ml) and stained with G115 or 73R9 TCR tetramers. (c) Serum-depleted K562 cells were incubated with 100 μg/ml of HDL hApoA-I (left histogram) or hM5L (right histogram) and labeled with G115 TCR tetramers in the presence of the indicated competing mAb (20 μg/ml). […] Data are representative of three experiments.
Immunofluorescence stainings were performed in PBS containing 1% BSA and devoid of serum using FITC-conjugated goat F(ab)′2 anti-mouse Ig antibody (Caltag) as the second step reagent. Irrelevant isotype-matched control antibodies were used as negative controls. In apolipoprotein binding experiments, serum-deprived cells were incubated with serum or purified protein preparations in PBS containing 1% BSA, at room temperature, 30 minutes prior to antibody staining. 7H10 (anti-α-ATP synthase) and 3D5 (anti-β-ATP synthase) and 7F9 (anti-γ-ATP synthase) are from Molecular Probes. 4H1 (anti-human apoA-I) (Collet et al., 1997) was obtained from Dr Y. Marcel (Ottawa).
The G115 (Vγ9Vδ2) (3) and 73R9 (Vγ8Vδ3) extracellular γ and δ chains (the latter carrying a short 3′ Biotin tag) were expressed in Escherichia coli, then refolded together by rapid dilution in 1 L of 1 M L-arginine, 0.1 M Tris-HCl, pH 8.0 and 0.2 mM reduced/0.2 mM oxidized glutathione. After dialysis against 10 mM Tris-HCl pH 8.0, concentration by cation exchange chromatography at pH 5.5, and purification by size exclusion chromatography at pH 8.0, the refolded protein was biotinylated for 4 h at 30° C. with 6 μg/ml BirA and excess of free biotin was removed by dialysis against 10 mM Tris-HCl pH 8.0, 150 mM NaCl. Tetramers of γδ TCR heterodimers were obtained by mixing the biotinylated TCR with phycoerythrin-labeled streptavidin (Biosource) at a molar ratio of 10:1. For staining, 2.10^5 cells were incubated at room temperature for 45 min with phycoerythrin-labeled γδ TCR tetramers at a concentration of TCR of 30 μg/ml in PBS plus 1% BSA. Background staining was determined using phycoerytlrin-labeled streptavidin at the same concentration.

Vγ9Vδ2 T cells = experiment: TNFα secretion by T cell clones stimulated with protein-coated latex beads; type: cell-based, human; settings: serum-free (sfm)
From the text: FIG. 6: Induction of Vγ9Vδ2 T cell lymphokine secretion by immobilized ATP-synthase. HDL-derived apoA-I and ATP synthase were immobilized on latex beads and these were used to stimulate T cell populations. none: no stimulation; empty: beads saturated with BSA; apoA-I: beads coated with apoA-I only. AS: beads coated with the F1 extra-membrane subunit of bovine ATP synthase. AS/apoA-I: beads coated with both protein preparations.
[…] The capacity of γδ clones G25, G115, 73R9 to secrete significant amounts of TNFα upon stimulation was checked by using Daudi cells as target cells as well as PMA/ionomycin or PHA. The αβ clone A4.19 secretes saturating quantities of TNFα upon PMA/ionomycin or PHA stimulation (not shown). […]
2 h- ^51Cr-release assays were performed in standard conditions except for the use of serum-free conditions in some experiments: in sensitization experiments with apolipoprotein preparations, target tumor cells were serum-deprived as described for facs analysis, loaded with ^51Cr (100 μCi/10^6 cells, 1 hour, 37° C.), extensively washed in RPMI and resuspended in sfm medium. […] Specific lysis was calculated as the percentage of maximum release. […] IFNγ was titrated by a specific Elisa technique, whereas TNFα concentration was assessed by a biological assay based on WEHI cells viability. […]

[2] = molecular target: human lipid-free apoA-I prepared from high density lipoprotein particles (HDL-apoA-I) (human) (UniProt P02647); experiment: SPR (Biacore 3000), apoA-I immobilized (2260 RU), TCR injected at 125 nM to 2 µM
UniProt P02647, sequence (P02647 25-267 limits assumed): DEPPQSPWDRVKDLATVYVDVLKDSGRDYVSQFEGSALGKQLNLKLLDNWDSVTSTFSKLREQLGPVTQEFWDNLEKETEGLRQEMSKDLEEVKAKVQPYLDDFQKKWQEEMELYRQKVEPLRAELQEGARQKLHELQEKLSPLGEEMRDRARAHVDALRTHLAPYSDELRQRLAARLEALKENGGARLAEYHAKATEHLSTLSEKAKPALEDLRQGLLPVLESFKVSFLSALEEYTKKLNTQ

[3] = molecular target: purified bovine ATP synthase (F1 subunit) (bovine) (UniProt P19483); experiment: SPR (Biacore 3000), ATP synthase (F1) immobilized (22440 RU), TCR injected at 0.5 to 4 µM
[4] = molecular target: single binding receptor for apoA-I on Daudi cells; experiment: Scatchard analysis of 125I-labelled free apoA-I binding to Daudi cells, 2 h at 4° C.
Daudi cells [5] = experiment: 51Cr release assay of Daudi cytolysis by effector T cell clones in serum-free medium; type: cell-based, human; settings: serum-depleted targets
Method: FIG. 2: ApoA-I-dependent activation of Vγ9Vδ2 T cells. ^51Cr release assays were performed in serum-free medium (sfm) to assess dependance on serum and apoA-I of Daudi cytolysis by different effector T cell populations. G25 and G42: Vγ9Vδ2 T cell clones, 73R9: Vγ8Vδ3 T cell clone. M5L (bovine serum component immunopurified with M5 antibody) was tested at the indicated concentration for its ability to substitute for serum (fcs). Recombinant annexin V was used as a control purified protein.
2 h- ^51Cr-release assays were performed in standard conditions except for the use of serum-free conditions in some experiments: in sensitization experiments with apolipoprotein preparations, target tumor cells were serum-deprived as described for facs analysis, loaded with ^51Cr (100 μCi/10^6 cells, 1 hour, 37° C.), extensively washed in RPMI and resuspended in sfm medium. Effector T cells cultivated in serum-containing medium were washed extensively in RPMI, incubated for 2 hours in sfm at 37° C. and resuspended in sfm medium. […] Specific lysis was calculated as the percentage of maximum release. […] IFNγ was titrated by a specific Elisa technique, whereas TNFα concentration was assessed by a biological assay based on WEHI cells viability.

Question: What does the source list for apolipoprotein A-I [apoA-I]?
Answer: Kd (Daudi cells [1]): 80 nM; specific binding on Raji cells (Raji cells): absence of specific binding; interaction with immobilized G115 TCR (immobilized Vγ9Vδ2TCR): specifically interacted; effect on Vγ9Vδ2 TCR tetramer binding to K562 (K562 cells): increased; effect on binding of Vγ8Vδ3 TCR tetramers to K562 (K562 cells): neither serum, nor apoA-I, affected the binding; stimulatory activity on Vγ9Vδ2 T cells in serum-free conditions (Vγ9Vδ2 T cells): relatively minor increase

Question: With “apoA-II: purified apolipoprotein A-II, control of hydrophobicity similar to that of apoA-I [reference compound]” as the molecule, how does the “effect on Vγ9Vδ2 TCR tetramer binding to K562” value (K562 cells) read?
Answer: The value was “did not enhance”.

Question: For soluble monomeric G115 TCR (Vγ9Vδ2), which Kd [2] is on record?
Answer: The Kd was 810 nM.

Question: And the koff [2]?
Answer: The koff was 0.00713 s⁻¹.

Question: What about the kon [2] of the same molecule?
Answer: The kon was 8800 M⁻¹ s⁻¹.

Question: And the Kd [3]?
Answer: Its Kd is 1510 nM.

Question: And the koff [3]?
Answer: The koff was 0.00254 s⁻¹.

Question: What about the kon [3] of the same molecule?
Answer: Its kon is 1680 M⁻¹ s⁻¹.

Question: With “hM5L: human serum ligand of M5 mAb, immunopurified; identity to apoA-I confirmed” as the molecule, how does the “effect on Vγ9Vδ2 TCR tetramer binding to K562” value (K562 cells) read?
Answer: The value was “increased”.

Question: With “human lipid-free apoA-I prepared from high density lipoprotein particles (HDL-apoA-I) (from UniProt P02647 25-267) (ligand)” as the molecule, how does the Kd [4] read?
Answer: Its Kd is 80 nM.

B1: M5L: bovine serum component immunopurified with M5 antibody, ~28 kDa, identified as apolipoprotein A-I (protein, UniProt P15497 25-265, looked up)
Apolipoprotein A-I: DDPQSSWDRVKDFATVYVEAIKDSGRDYVAQFEASALGKQLNLKLLDNWDTLASTLSKVREQLGPVTQEFWDNLEKETASLRQEMHKDLEEVKQKVQPYLDEFQKKWHEEVEIYRQKVAPLGEEFREGARQKVQELQDKLSPLAQELRDRARAHVETLRQQLAPYSDDLRQRLTARLEALKEGGGSLAEYHAKASEQLKALGEKAKPVLEDLRQGLLPVLESLKVSILAAIDEASKKLNAQ
Question: How did the “effect on Daudi cell lysis by control Vγ8Vδ3 T cell clone (#73R9)” value (Daudi cells [5]) turn out when B1 was run?
Answer: Its value is “neither affected by serum deprivation nor by addition of M5L”.

Question: And the “effect on Vγ9Vδ2 T cell-mediated lysis of Daudi cells” value (Daudi cells [5]; Vγ9Vδ2 clones G25, G42)?
Answer: The value was “increased Vγ9Vδ2 T cell-mediated lysis in a dose-dependent manner”.
